Values of other authors in article PMC4254573.
pKd: −log10 of the molar value.

Legend:
[1] = biological target: EGFR ECD (Drosophila melanogaster) (UniProt P04412)
sEGFR ECD (Homo sapiens) = sEGFR ECD (Homo sapiens) (UniProt P00533)

pKd [1] | pKd (sEGFR ECD (Homo sapiens)) | Substance
4.40 | – | EGFR ECD (from UniProt P04412)
– | 6.00 | sEGFR ECD (from UniProt P00533)
